Data: US20250352661A1 (MYTHIC THERAPEUTICS, published 2025)
Numbering of substitutions follows the chain as printed. Names may count otherwise.

T1: Human LRRC15 Protein, His Tag (Acro Biosystems) (human, UniProt Q8TF66 22-538, limits assumed)
T1 construct: not shown: His tag
T1 sequence (looked up): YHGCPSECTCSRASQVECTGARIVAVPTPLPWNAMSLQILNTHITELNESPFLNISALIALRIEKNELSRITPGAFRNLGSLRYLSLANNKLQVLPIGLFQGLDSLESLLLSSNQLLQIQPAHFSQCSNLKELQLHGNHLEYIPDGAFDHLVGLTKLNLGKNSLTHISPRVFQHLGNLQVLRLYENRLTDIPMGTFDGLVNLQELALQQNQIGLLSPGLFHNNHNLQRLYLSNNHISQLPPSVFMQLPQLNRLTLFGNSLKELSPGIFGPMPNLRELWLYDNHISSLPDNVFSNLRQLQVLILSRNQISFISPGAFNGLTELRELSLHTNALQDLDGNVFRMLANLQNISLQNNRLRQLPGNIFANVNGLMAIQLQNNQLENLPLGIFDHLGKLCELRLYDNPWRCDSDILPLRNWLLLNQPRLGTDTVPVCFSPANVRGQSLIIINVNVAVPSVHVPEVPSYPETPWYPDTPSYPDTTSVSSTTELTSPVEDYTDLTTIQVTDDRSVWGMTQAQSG

T2: Human LRRC15 Protein, His Tag, Acro Biosystems (human, UniProt Q8TF66 22-538, limits assumed)
T2 construct: not shown: His tag
T2 sequence (looked up): T1 sequence (looked up)

B1: MYT9494 (antibody, V domains shown)
VH: EVQLVESGGGLVQPGGSLRLSCTASGFSFSSSHWICWVRQAPGKGLEWVGCIYAGSIGSTYYASWAKGRFTISRDTSKNTVYLQMNSLRAEDTAVYYCADAPNDIYNYYFNLWGQGTLVTVSS
VL: EIVMTQSPSTLSASVGDRVIITCQASENIYNYLAWYQQKPGKAPKLLIYYASTLASGVPSRFSGSGSGAEFTLTISSLQPDDFATYYCQSGYVSKSSTFGQGTKLTVL
notes: also called hu29F1 VH R100D
B2: MYT9493 (antibody, V domains shown)
VH: B1 VH with A99D, D100R
VL: B1 VL
notes: Humanized 29F1 VH aspartate variant; also called hu29F1 VH A99D
B3: MYT9508 (antibody, V domains shown)
VH: B1 VH with D100R
VL: B1 VL with A25D
notes: also called hu29F1 VL A25D
B4: MYT9516 (antibody, V domains shown)
VH: B1 VH with D100R
VL: B1 VL with L33D
notes: also called hu29F1 VL L33D
B5: MYT9510 (antibody, V domains shown)
VH: B1 VH with D100R
VL: B1 VL with E27D
notes: Humanized 29F1 with VL E27D; captured by anti-human Fc sensor
B6: MYT9519 (antibody, V domains shown)
VH: B1 VH with D100R
VL: B1 VL with A51D
notes: also called hu29F1 VL A51D
B7: MYT9514 (antibody, V domains shown)
VH: B1 VH with D100R
VL: B1 VL with N31D
notes: Humanized 29F1 with VL N31D; captured by anti-human Fc sensor
B8: MYT9511 (antibody, V domains shown)
VH: B1 VH with D100R
VL: B1 VL with N28D
notes: Humanized 29F1 with VL N28D; captured by anti-human Fc sensor
B9: MYT9520 (antibody, V domains shown)
VH: B1 VH with D100R
VL: B1 VL with S52D
notes: Humanized 29F1 with VL S52D; captured by anti-human Fc sensor
B10: MYT9509 (antibody, V domains shown)
VH: B1 VH with D100R
VL: B1 VL with S26D
notes: Humanized 29F1 with VL S26D; captured by anti-human Fc sensor
B11: MYT9524 (antibody, V domains shown)
VH: B1 VH with D100R
VL: B1 VL with S56D
notes: Humanized 29F1 with VL S56D; captured by anti-human Fc sensor
B12: MYT9522 (antibody, V domains shown)
VH: B1 VH with D100R
VL: B1 VL with L54D
notes: Humanized 29F1 with VL L54D; captured by anti-human Fc sensor
B13: MYT9754 (antibody, V domains shown)
VH: B1 VH with D100R
VL: B1 VL with T98E
notes: also called hu29F1 VL T98E
B14: MYT9727 (antibody, V domains shown)
VH: B1 VH with D100R
VL: B1 VL with Q24E
notes: Humanized 29F1 with VL Q24E; captured by anti-human Fc sensor
B15: MYT9734 (antibody, V domains shown)
VH: B1 VH with D100R
VL: B1 VL with N31E
notes: also called hu29F1 VL N31E
B16: MYT9745 (antibody, V domains shown)
VH: B1 VH with D100R
VL: B1 VL with Q89E
notes: also called hu29F1 VL Q89E
B17: MYT9753 (antibody, V domains shown)
VH: B1 VH with D100R
VL: B1 VL with S97E
notes: also called hu29F1 VL S97E
B18: MYT9741 (antibody, V domains shown)
VH: B1 VH with D100R
VL: B1 VL with T53E
notes: Humanized 29F1 with VL T53E; captured by anti-human Fc sensor
B19: MYT9740 (antibody, V domains shown)
VH: B1 VH with D100R
VL: B1 VL with S52E
notes: Humanized 29F1 with VL S52E; captured by anti-human Fc sensor
B20: MYT9728 (antibody, V domains shown)
VH: B1 VH with D100R
VL: B1 VL with A25E
notes: also called hu29F1 VL A25E
B21: MYT9738 (antibody, V domains shown)
VH: B1 VH with D100R
VL: B1 VL with Y50E
notes: Humanized 29F1 with VL Y50E; captured by anti-human Fc sensor
B22: MYT9736 (antibody, V domains shown)
VH: B1 VH with D100R
VL: B1 VL with L33E
notes: also called hu29F1 VL L33E
B23: MYT9739 (antibody, V domains shown)
VH: B1 VH with D100R
VL: B1 VL with A51E
notes: Humanized 29F1 with VL A51E; captured by anti-human Fc sensor
B24: MYT9730 (antibody, V domains shown)
VH: B1 VH with D100R
VL: B1 VL with E27A
notes: Humanized 29F1 with VL E27A; captured by anti-human Fc sensor
B25: MYT9732 (antibody, V domains shown)
VH: B1 VH with D100R
VL: B1 VL with I29E
notes: also called hu29F1 VL I29E
B26: MYT9752 (antibody, V domains shown)
VH: B1 VH with D100R
VL: B1 VL with S96E
notes: also called hu29F1 VL S96E
B27: MYT9729 (antibody, V domains shown)
VH: B1 VH with D100R
VL: B1 VL with S26E
notes: also called hu29F1 VL S26E
B28: MYT9744 (antibody, V domains shown)
VH: B1 VH with D100R
VL: B1 VL with S56E
notes: Humanized 29F1 with VL S56E; captured by anti-human Fc sensor

molecular target: T1, Human LRRC15 Protein, His Tag (Acro …); experiment: BLI; dissociation pH 7.4 black, pH 5.4 grey [1/2); D00019 FIG. 4B (1/2]
Procedure: Desirable mutations were transferred to a humanized framework (humanized, MYT 8387-8411). After allowing for four days of protein expression, cell culture supernatants were collected, quantified by SDS-PAGE analysis, and the pH dependence of the variant was evaluated using biolayer interferometry (BLI) on an Octet RED 96e instrument. Briefly, cell culture supernatants were diluted based on qualitative expression level of the variant determined by visual examination of SDS-PAGE gels, 5 μL of cell culture supernatant was diluted into 195 μL of 1×PBST, pH 7.4 for high expressors, 25 μL of cell culture supernatant was diluted into 175 μL of 1×PBST, pH 7.4 for medium expressors and 100 μL of cell culture supernatant was diluted into 100 μL of 1×PBST, pH 7.4 for low expressors for loading onto the sensor tips. The resulting diluted supernatants were then captured on an anti-human Fc sensor (Forte Bio). A baseline was established using 1×PBST (50 mM Potassium Phosphate Buffer+150 mM NaCl+0.05% Tween 20) pH 7.4, and the […] was associated with 50 nM of LRRC15 (Human LRRC15 Protein, His Tag, Acro Biosystems) in 1×PBST pH 7.4 for 120 sec to generate an association curve. In the dissociation phase, the antibody-antigen complex on the sensor was exposed to 1×PBST pH 7.4 or pH 5.4, for 300 sec. Association and dissociation phase curves were examined for the starting ABPC antibody (with no substitutions) and each corresponding antibody variant at pH 5.4 and pH 7.4 to inform on two criteria: a) enhanced dissociation (i.e., higher koff values) at pH 5.4 due to histidine substitution compared to the starting ABPC, (with no substitutions), and b) reduced dissociation at pH 7.4 (i.e., lower koff values) compared to pH 5.4 in the antibody variant itself and with the starting ABPC (with no substitutions).
The methods of Examples 9-10 were applied to RabMAb clone 29F1 (rabbit VH SEQ ID NO: 572 and VL SEQ ID NO: 578; and humanized VH SEQ ID NO: 576 and VL SEQ ID NO: 582).

binding result	Binder
binds	B1
binds	B2

molecular target: T2, Human LRRC15 Protein, His Tag, Acro …; experiment: BLI; dissociation pH 7.4 black, pH 5.4 grey [D00022 FIG. 5B]
Procedure: The resulting diluted supernatants were then captured on an anti-human Fc sensor (Forte Bio). A baseline was established using 1×PBST (50 mM Potassium Phosphate Buffer+150 mM NaCl+0.05% Tween 20) pH 7.4, and the […] was associated with 50 nM of LRRC15 (Human LRRC15 Protein, His Tag, Acro Biosystems) in 1×PBST pH 7.4 for 120 sec to generate an association curve. In the dissociation phase, the antibody-antigen complex on the sensor was exposed to 1×PBST pH 7.4 or pH 5.4, for 300 sec. Association and dissociation phase curves were examined for the starting ABPC antibody (with no substitutions) and each corresponding antibody variant at pH 5.4 and pH 7.4 to inform on two criteria: a) enhanced dissociation (i.e., higher koff values) at pH 5.4 due to histidine substitution compared to the starting ABPC, (with no substitutions), and b) reduced dissociation at pH 7.4 (i.e., lower koff values) compared to pH 5.4 in the antibody variant itself and with the starting ABPC (with no substitutions).
Briefly, CDRs in the 15G7 light chain were identified using the methods described in Example 9, and for each CDR, residues falling under either or both Kabat and IMGT CDR definitions were called as CDR residues. To generate pH-dependent sequence variants, individual amino acid residues within the light chain CDRs were systematically substituted with a histidine, one at a time (rabbit, MYT6122-6151). Desirable mutations were transferred to a humanized framework MYT8413-8487). After allowing for four days of protein expression, cell culture supernatants were collected, quantified by SDS-PAGE analysis, and the pH dependence of the variant was evaluated using biolayer interferometry (BLI) on an Octet RED 96e instrument (as described in Example 9). […]

binding result	Binder
binds	B3
binds	B4
binds	B5
binds	B6
binds	B7
binds	B8
binds	B9
binds	B10
binds	B11
binds	B12

molecular target: T2, Human LRRC15 Protein, His Tag, Acro …; experiment: BLI; dissociation pH 7.4 black, pH 5.4 grey [D00028 FIG. 7B]

binding result	Binder
binds	B13
binds	B14
binds	B15
binds	B16
binds	B17
binds	B18
binds	B19
binds	B20
binds	B21
binds	B22
binds	B23
binds	B24
binds	B25
binds	B26
binds	B27
binds	B28
